From article PMC4918383

Assays:
[1] = target: actin filaments (UniProt P68135)
[2] = target: actin filaments (UniProt P68135); remark: listed apart in the source
[3] = target: actin filaments (UniProt P68135); remark: listed apart in the source

human β-cardiac myosin motor domain::GFP chimera, sequence (P12883 1-787, change not shown): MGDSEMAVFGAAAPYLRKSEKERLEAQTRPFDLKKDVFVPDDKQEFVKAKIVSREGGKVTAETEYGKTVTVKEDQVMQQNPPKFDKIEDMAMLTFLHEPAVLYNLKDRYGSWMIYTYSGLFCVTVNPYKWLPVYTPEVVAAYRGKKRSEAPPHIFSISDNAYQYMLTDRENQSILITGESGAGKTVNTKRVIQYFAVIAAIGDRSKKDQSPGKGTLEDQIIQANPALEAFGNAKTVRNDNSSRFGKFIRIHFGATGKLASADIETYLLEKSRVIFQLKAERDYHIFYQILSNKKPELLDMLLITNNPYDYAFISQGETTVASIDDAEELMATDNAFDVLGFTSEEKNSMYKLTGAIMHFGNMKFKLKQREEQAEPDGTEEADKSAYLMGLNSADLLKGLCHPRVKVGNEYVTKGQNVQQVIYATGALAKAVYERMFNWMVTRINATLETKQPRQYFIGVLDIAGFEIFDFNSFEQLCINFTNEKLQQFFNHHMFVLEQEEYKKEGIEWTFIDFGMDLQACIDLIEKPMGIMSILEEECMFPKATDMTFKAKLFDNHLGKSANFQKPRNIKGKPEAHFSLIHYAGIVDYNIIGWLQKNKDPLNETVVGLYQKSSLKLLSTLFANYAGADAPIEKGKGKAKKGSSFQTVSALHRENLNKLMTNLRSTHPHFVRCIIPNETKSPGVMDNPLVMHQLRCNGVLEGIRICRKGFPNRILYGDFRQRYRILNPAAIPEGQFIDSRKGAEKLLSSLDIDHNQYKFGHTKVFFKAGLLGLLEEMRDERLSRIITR
human β-cardiac heavy meromyosin, sequence (P12883 1-1138): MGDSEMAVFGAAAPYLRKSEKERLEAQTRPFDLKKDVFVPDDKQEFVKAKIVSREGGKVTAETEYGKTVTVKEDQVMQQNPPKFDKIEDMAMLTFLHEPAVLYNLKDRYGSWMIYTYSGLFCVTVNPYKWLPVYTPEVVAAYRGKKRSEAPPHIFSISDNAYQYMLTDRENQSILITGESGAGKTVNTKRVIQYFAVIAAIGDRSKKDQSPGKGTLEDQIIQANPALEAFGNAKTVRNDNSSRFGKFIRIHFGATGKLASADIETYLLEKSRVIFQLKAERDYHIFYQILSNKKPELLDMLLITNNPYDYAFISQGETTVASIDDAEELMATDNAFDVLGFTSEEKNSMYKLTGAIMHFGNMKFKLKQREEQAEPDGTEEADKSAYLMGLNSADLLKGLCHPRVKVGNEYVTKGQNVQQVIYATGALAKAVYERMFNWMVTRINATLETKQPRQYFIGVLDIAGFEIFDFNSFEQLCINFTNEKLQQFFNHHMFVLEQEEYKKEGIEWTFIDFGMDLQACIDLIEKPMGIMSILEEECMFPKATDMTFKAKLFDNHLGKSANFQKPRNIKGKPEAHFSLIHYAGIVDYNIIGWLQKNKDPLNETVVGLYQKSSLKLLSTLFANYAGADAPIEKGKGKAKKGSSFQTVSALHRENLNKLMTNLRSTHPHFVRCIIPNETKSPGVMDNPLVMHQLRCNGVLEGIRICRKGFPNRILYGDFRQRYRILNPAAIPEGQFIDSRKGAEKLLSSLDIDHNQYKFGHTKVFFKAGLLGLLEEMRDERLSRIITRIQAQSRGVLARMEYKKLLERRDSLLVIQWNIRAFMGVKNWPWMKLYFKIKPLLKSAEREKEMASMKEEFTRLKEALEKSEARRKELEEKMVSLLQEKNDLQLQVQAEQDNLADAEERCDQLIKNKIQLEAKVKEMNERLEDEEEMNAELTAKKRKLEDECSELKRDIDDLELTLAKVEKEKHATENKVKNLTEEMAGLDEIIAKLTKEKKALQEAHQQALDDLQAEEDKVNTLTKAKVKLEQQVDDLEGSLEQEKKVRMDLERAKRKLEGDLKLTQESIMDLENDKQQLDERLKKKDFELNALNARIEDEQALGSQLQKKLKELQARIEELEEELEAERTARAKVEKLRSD

| actin filament velocity in the in vitro motility assay (cHMM bound directly to nitrocellulose, 32 °C), without OM and with OM titrated from 0.42 to 12.5 μM; slowed 15–20-fold by OM [1] | sliding actin filament velocity in the in vitro motility assay (cMD held by anti-GFP, 32 °C), without OM and with OM titrated from 0.42 to 12.5 μM; slowed 15–20-fold by OM [2] | K ATPase for actin activation of the steady-state ATPase of the cMD (0.06 μM cMD, 0–100 μM actin), with 100 μM OM [3] | K ATPase for actin activation of the steady-state ATPase of the cMD (0.06 μM cMD, 0–100 μM actin), without OM [3] | Substance |
| --- | --- | --- | --- | --- |
| 0.8 μm s^−1 | – | – | – | human β-cardiac heavy meromyosin (from UniProt P12883 1-1138) (domain or fragment) |
| – | 0.8 μm s^−1 | 5.4 µM | 22.5 µM | human β-cardiac myosin motor domain::GFP chimera (from UniProt P12883 1-787) (domain or fragment) |
